In the supplement of paper PMC12636428:

Tested on: Saccharomyces cerevisiae
Test: transcriptional activation domain activity (GFP:mCherry ratio, weighted mean of sorted bins, harmonized to initial dataset scale) (arbitrary fluorescence ratio units); higher = stronger transcriptional activation
Conditions: beta-estradiol 1 µM; induction time 4 h
How it was run: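 The listed activation activity is a read-weighted mean of bin median fluorescence, averaged across barcodes and linearly mapped onto the initial dataset scale. Barcoded tiles, fused to an estradiol-inducible synthetic transcription factor, were integrated at URA3 in yeast diploids bearing a GFP reporter. Cells were held 4 hours at 30 °C in SC with 1 uM beta-estradiol, sorted into 8 GFP:mCherry bins, and sequenced, and tiles with fewer than 50 reads were excluded.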

First: YVDEENQSSNGAVRLWKRHFTLSGIMNRLLRKTVRRNTWIYISVSTLIVQIRR
Second: SGGKTMVSGSFAGESGRLQGSGPFGRGGGRESREQAYDNGRAKIARLAHGLRL
The “transcriptional activation domain activity” value of the first is higher: 45700 for the first, 22400 for the second.

Going from “DLQTYVLCLLLLYIARDFVDCLWNLFSTIAILCLVTWVTPMFLIAVFPIGLVY” to “RGTQKREKRGKEKGEGGTWGRAEGEGKRGGKEKGRREEKRGKKKEAGGAGGRG”, the “transcriptional activation domain activity” value falls from 53700 to 23500.

Compared with “FFHVTIRVASQSCGIAFGILGFSNFRVFLAYLILGAEGYFTLVLCAFRFLISW”, “ILLEVLGKVRGDHTPKRQETSVQGIRRRFRDDLAFLCEYDKGGIACTAIGIEE” is lower in “transcriptional activation domain activity” value: 61100 for the first, 12500 for the second.

Going from “PKPAPAAAAAPAPAAAPPAAAPAPEPKKYAPPPARPAPAPAAAPVAAAAAAAP” to “MFCLRSWIPVLFFLLRTNASPVYLVLFLSATYFLNRPCVYCSLLLFILVVALF”, the “transcriptional activation domain activity” value rises from 9320 to 46500.

First: RCSIIYAGCHCPMWMVLFVPGCLFGLSVALGTLWLVQASDMLFPHTNYILIYI
Second: TPANSSSTMALVPKEEQKEEEEKSTPADSGSTTASVPKEEEKEEEKSTPADSG
The “transcriptional activation domain activity” value of the first is higher: 46700 for the first, 44400 for the second.

Going from “ALPERIKTFHAHGIFLALHCFLLQHGPQPISIWLLLALIKGRRRCLFPSIFFC” to “IDPHGYDANGLYEIGTIVSSIAVCVANFFVVFSLYSYTWIQALVISLSILVYY”, the “transcriptional activation domain activity” value rises from 36200 to 45700.

Compared with “SGWQRHIILHESLLNRYEHVIIVFVKSHLPSAGLLLKQFCVSGRILARMWRNG”, “GPIFILLNYIFLAMLWLKNYRPHHLHILIRTRPYVYVTSNLPRLRFLFRHFLF” is higher in “transcriptional activation domain activity” value: 47800 for the first, 48300 for the second.

First: AAPTETAPPAAEPAPVAAPIETKAAEPAAPVTEAPATTATEEVKPAVEPAKTE
Second: NRTLSTKDLIVLRLCSSFFAYFIISLFYCLMNLAFQIVVDRKFGQAGFIVFWM
The “transcriptional activation domain activity” value of the first is lower: 49400 for the first, 62100 for the second.

Going from “YVSVNEHGDETDSSFVRLVNLGSSIVIQHITCYLQSRVVFYLMNLHSMPRAIF” to “AFLLFLIYLTFFCWVCFATSATWVWTEILSDNQYTESFMPINDVLLAVLSGII”, the “transcriptional activation domain activity” value falls from 60800 to 47600.

Compared with “MAYLFLYFTIFFIFFFIAGDGGDDCEIFFLFFFFSFKALFTPFFYLYLYWTSA”, “VPYQKYLYYPLLCFGRFNLYVLSLEFILRDKGPKSNRWHRFYELSGQVFFWFW” is higher in “transcriptional activation domain activity” value: 25400 for the first, 71200 for the second.

Going from “MWGRWVGWSLIFLELYLDHLILQFIPPTRFIVTLFFFFSFLFIWYFCLLSLSL” to “LHAGAAADDARTGGGGGGGTGQGRAEGRDRGAEPGAVRGGEPHGRGRAEAGAH”, the “transcriptional activation domain activity” value falls from 28800 to 8730.

Compared with “RGTIRPGFLIYFFILFLWVFQIHCIMQIIVNRIALLHVSPTIVRRLKWGIFSI”, “SPSSQTTSSTTVVLVFGSDEKRVKEVGDGLKSKLAVKGGGKGTRWSGKYTGVW” is lower in “transcriptional activation domain activity” value: 66300 for the first, 32000 for the second.

Going from “TPGGSSGGTGAAVASSFSVFGTGTDTVNSLRSPASANSLFSCRPTRGLITRNG” to “AQLTLRAIVSSKEAGVIIGKGGKNVADLRDETGVKAGVSKVVQGVHDRVLTIT”, the “transcriptional activation domain activity” value falls from 58000 to 29600.

Compared with “FVGIRDRTTFLLFTSAWTVVFSLLFVLLFMHSASTGSPLTSVASHFVVFLLTW”, “SRAKVCGWADVFMVIAMHCLLGWSVTMTLYALRGGTRHIWDLEPLGVDNLIKA” is lower in “transcriptional activation domain activity” value: 56900 for the first, 35200 for the second.

Going from “MLQLWWLCVVFCVICFLCEWFRLGVVPPFLAATTLLQLFYFFYLLTFFCRVCA” to “LRAEGLFQCNYLSYFIELTRYTFLFSMFLILLRSGWFGTSGLFLGMLWHQLVF”, the “transcriptional activation domain activity” value falls from 50700 to 37500.

First: MSWPDRGYYYCLMVISLLSAKLMHLFSHFTALPLILFLLYLPTFLLLDLLVVF
Second: FLLSTSFYFVFILFLFHFYIVLFLLPPPSLSFPLSLPYLSAFIVLTPTQLWPA
The “transcriptional activation domain activity” value of the first is lower: 60500 for the first, 77600 for the second.

First: ANGSSATTPEPDGKTAAGTAAVPKRKQTEKKANGPTKKQKTGSPKKGGRKGAS
Second: KGRSRENSRQRGNEDRVARGRDESRSRKTGGREASEDRGRSISRQWTPKPAKR
The “transcriptional activation domain activity” value of the first is higher: 27700 for the first, 22600 for the second.

Going from “AWAVQTKVYLNYLWHTTNKFTTGFKVIYIQCHPDFVTWEQMKIMAMFLCCLCF” to “QELCRTANITYHRTSYPVVHRHLFSTPSLQRLMTWLKELPYQVAFQVELLVRG”, the “transcriptional activation domain activity” value falls from 55800 to 49100.

Going from “YLVMVYAWILWLSLVVLLALIAFYLFMVIWNIDRGTPSPVCLVVFCMQFICTL” to “SKIAWMILNIKYITQILTTIMRMHGQIEKNPLRPEVVPQFVGICRWIMQFMIY”, the “transcriptional activation domain activity” value rises from 44200 to 55700.

Going from “ILQHILLWSLMVMTGCCPGSFFITSYYPNEWLKFLDGYMIQPYVTTFMIRGFL” to “DQGLTDCGDVRHTKVVSLSYHFSPDYNDPTIIPVVTRWCTEIGKLTLTGITFV”, the “transcriptional activation domain activity” value rises from 56900 to 62400.

Going from “MYYLLLPLAYSLSHSVFFFFSVFLLRVLQYHGWWPFLLSSLCVFFLACVFVKG” to “PVPFDPPMPVDGLGFLPGDGWMDAMDDIGPLEALDLGFLPVDFWEPHFNRQWN”, the “transcriptional activation domain activity” value rises from 27100 to 135000.

Going from “IKDFEAHLFAIILYHLSFFGCRALGVVSMLKCQGQMCDPWSLMYRGLYVFYRL” to “LLNVHVCVIYFVGWIVSLFQFCQIAIQQPTLDWVHCLPYILRVLLGFDLVYVT”, the “transcriptional activation domain activity” value rises from 35900 to 66100.

Going from “LTHGRERSLIWKAKSSLNKWMFLVLRYFALLDLMFTVAVDTNFHVKYNTPFCI” to “VQRYLCQYQPQITLGFMIFTDMIFFFLDTYLCYVLLNTIFSIARSFYIGSSIW”, the “transcriptional activation domain activity” value falls from 72400 to 56700.

First: MPPVAKQKRSAADRAKGASRAKSGCYTCRIRRKKCDEERDEHDHCRTCTRLRL
Second: ARDDGGGEGAAGETHQAQEARRVLDAGGRARAGAGALRAGPQQHPAPARALRP
The “transcriptional activation domain activity” value of the first is higher: 23700 for the first, 14300 for the second.

Compared with “VIYTSFFLYIYTPFIPFFFLFFFFLLLIPTFYIYMKRVLYYGLILWWFIQYSL”, “SRKESRKEKSESKPVKAGKKEGKEKGKGKEGKEGKADGEKAAKPKKEKKEKKE” is lower in “transcriptional activation domain activity” value: 51700 for the first, 17700 for the second.

Compared with “RFYVYLLILLGCIIWINQCQYATDRSGYQRGHSAVLRALFYRLCRLLQTAITP”, “VLFSQRRRWINSTVHNLLELVILPELCGFCCFSMRFFVFIDLLGTILTYLVVV” is higher in “transcriptional activation domain activity” value: 35000 for the first, 61100 for the second.

Going from “PPPKGSDAALAAPPPPPGASGAPPPPPPKGSEAAAAAPPPPPPADASGAPPPP” to “WSFLSFSFLPFPLSSFLLLSYPPPSFFLLPPSPFFFAVLLHLFTLLLFSLLLL”, the “transcriptional activation domain activity” value rises from 26100 to 63900.

Going from “YLSFLGIGVTFYTFLLLFFFLEDLEDFLVFFEGVLMIFLKLFIVFWTSLLVFL” to “MFCWLCYFLPFISFGFPLIYPSSVGILLWIVISGLCVFIFTLKMFLVFLLLFF”, the “transcriptional activation domain activity” value falls from 62000 to 46100.

First: TLMVLCENSYTTISRFILLDSMLLFFTFTTMLCFARFHNLQSRSFSFQWWLWI
Second: YDLLSVKDLHIQDRLLSARIVLSDISFLKRILMLLGVPDGLSSRLVSHLWCAV
The “transcriptional activation domain activity” value of the first is lower: 51800 for the first, 58400 for the second.

First: LLRSRAYDDPAVFRIISALFQVPMRHKKNSVRGLLCVVWRVITWVYFQPRLPW
Second: AAQRSVMLGHNLVTLEDILMTQRKWRAVLHETFYVRWIAVLRRWLCRLLDWPV
The “transcriptional activation domain activity” value of the first is higher: 54600 for the first, 42900 for the second.

Compared with “SLLQSLPFPLQFLTLCFNSHLLIVIVVIIGCILESIYVGTFLWMLLRVCRWQG”, “GRSESQSANNNGNNARGGKTGGGEAAAGGKTSASRGPRGGRGAKNKGSGGSKG” is lower in “transcriptional activation domain activity” value: 66500 for the first, 28700 for the second.

Going from “ERDDSRSERNVDDGDRRRAGRRRRDSRSSDDEHTTSRRRGGKDHADREDSDRR” to “VADVMLQRSTLVIGYCLVITIICCSVFLLYSMDFLSSCISFIWIGMVTLMICL”, the “transcriptional activation domain activity” value rises from 29100 to 41500.

Going from “SASSSAPRKPVSISIGGGGGGAAAAAAAPPADKKPVSISIGGSSAKAAAPAAA” to “TRTRKWWLRTVWACTWLIPSFLLSSVGRMKRPDVRLAWREKVTIFWLIFLFNG”, the “transcriptional activation domain activity” value rises from 38800 to 68900.

Compared with “HSLGSNASIDHLYTYTHAYIYTLYIWLPKMFSFFPFAIIFFLCMLLLFFIFIF”, “SSSSKKQNQSADGERKKPKKTDGAEKGESVRRKSDSGGKSVKSEEKTTKGIQK” is lower in “transcriptional activation domain activity” value: 64600 for the first, 28800 for the second.

Going from “VVTLHEILKCLGHLRSLVLTAKAFGCLQAIRMILEHFLLVWRKTITHCLRYSE” to “RRKRRRRGGEDEQQAEVEDNDRHRSSRHHRRRRRETSEEKSPRRRATDRRRHP”, the “transcriptional activation domain activity” value falls from 60400 to 34600.

First: LFFYFFIFLFFYFFILLFYYFIILLFYYLFFFFATVLILILLFFFFFFTYQRT
Second: DSSSSNDSDSGADDGAARPVRRSRARRKHKHNHEHDGNGGEGDAKDKARKPSP
The “transcriptional activation domain activity” value of the first is higher: 47600 for the first, 28400 for the second.

Compared with “GDSTNGNNSPVEDEANLRRKAKKRREKEREREEKKRVGRREKAKKTNGGEKQG”, “WYHHVPLCILVLLLLAPHPSILYVLLNYHYLTLHATHYFIVHLLTIYAFSFLA” is higher in “transcriptional activation domain activity” value: 27000 for the first, 45900 for the second.

Compared with “YIKGVVLALWILDTFGMCLIFHILYWYLITNYGNPLSITEPIWSIILHIMVTA”, “VPRLKSPVYCVCLGSIILYSICLVLLVIYRVALIRESDGVCLIGFARGGSLPL” is lower in “transcriptional activation domain activity” value: 48500 for the first, 31200 for the second.

Going from “FPFFLSSLFFFLPFFSFFPFFLSSLFLLLFFSFSSSSYQTFSLREQFFHLFFT” to “MLLGCRKRYSAHPFNDFLSFFIFYSSLFFYSLLSPFPFPPHSTPVTSFFILFY”, the “transcriptional activation domain activity” value rises from 43500 to 53700.

Going from “GGALSHHEIRVHWAPSWVSSRAPCSTRGLGCKPGVSLIETVVRAVVLMSCARK” to “PIHAVYLFHLISSTFLLKYIYTYRFYFIFFLPFFLIWILCAAYWWLFFTHHIP”, the “transcriptional activation domain activity” value rises from 46200 to 54600.

First: IRGLLILRYQRGYKDLNHCEPQVIFYDRLCGFLVLGWFLHYFPFFLMSRQLFL
Second: GLFLVFGFWYIGVCSYGFLGFSLSLGGVYIRFFLYYHYQRILRLISLPFPVWF
The “transcriptional activation domain activity” value of the first is higher: 88200 for the first, 59700 for the second.

For “LLGVGYAMVLAWFMCLFYLFPFLGALTLYFVMDVVDLASRTLYKLLHTLPILV”, the “transcriptional activation domain activity” value was 52500.
